Source: patent US20120172285A1 (Dana-Farber, published 2012)
Bridges are numbered along the chain shown (N, C = ends). Where no end group is shown, it is not given here. [ ]: non-standard residue; d: D form. The star is where a group is joined. FITC = O=C1OC2(c3ccc(O)cc3Oc3cc(O)ccc32)c2ccc(NC(=S)*)cc21; S5 = C=CCCC[C@](C)(N)C(=O)O; Nle = CCCC[C@H](N)C(=O)O

B1: MCL-1 SAHBA (stapled MCL-1 BH3 helix, parental) (peptide)
peptide: KALETLR[S5]VGD[S5]VQRNHETAF
modifications: staple 8-12; also: N-terminal FITC or acetyl depending on assay
notes: domain: BH3; also called FITC-MCL-1 SAHBA
B2: MCL-1 SAHBA V220F (peptide, UniProt Q07820 208-228, looked up)
peptide: {FITC}-KALETLR[S5]VGD[S5]FQRNHETAF
modifications: staple 8-12
notes: domain: BH3; also called V220F point mutation in MCL-1 SAHB
B3: BAK SAHB (peptide)
peptide: {FITC}-QVGRQLA[S5]IGD[S5]INRRYD
modifications: staple 8-12
notes: also called FITC-BAK SAHB; BAK BH3 helix

What was measured:
[1] = molecular target: recombinant human MCL-1ΔNΔC (amino acids 172-320) (human) (UniProt Q07820); experiment: fluorescence polarization (FPA), FITC-SAHB, dilution series of MCL-1ΔNΔC [top panel]
[2] = molecular target: recombinant human MCL-1ΔNΔC (amino acids 172-320) (human) (UniProt Q07820); experiment: FPA, FITC-SAHB against MCL-1ΔNΔC
[3] = molecular target: recombinant BCL-XLΔC (UniProt Q07817); experiment: fluorescence polarization (FPA), FITC-SAHB with recombinant anti-apoptotic protein [lower table]
[4] = molecular target: recombinant BCL-wΔC (UniProt Q92843); experiment: as above
[5] = molecular target: recombinant BFL-1/A1ΔC (UniProt Q16548); experiment: as above
[6] = molecular target: recombinant human MCL-1ΔNΔC (amino acids 172-320) (human) (UniProt Q07820); experiment: as above
[7] = molecular target: recombinant BFL-1/A1ΔC (UniProt Q16548); experiment: fluorescence polarization (FPA), FITC-SAHB with recombinant protein; axis Concentration [log(pM)] [left panel]
[8] = molecular target: recombinant BCL-XLΔC (UniProt Q07817); experiment: fluorescence polarization (FPA), FITC-SAHB with recombinant anti-apoptotic protein [upper table]
[9] = molecular target: recombinant BCL-wΔC (UniProt Q92843); experiment: as above
[10] = molecular target: recombinant BFL-1/A1ΔC (UniProt Q16548); experiment: as above
[11] = molecular target: recombinant human MCL-1ΔNΔC (amino acids 172-320) (human) (UniProt Q07820); experiment: as above
[12] = molecular target: recombinant human MCL-1ΔNΔC (amino acids 172-320) (human) (UniProt Q07820); experiment: fluorescence polarization (FPA), FITC-NOXA SAHBB, dilution series of the protein [left graph]
[13] = molecular target: T1, recombinant human MCL-1ΔNΔC (amino acids 172-320) (human, UniProt Q07820 172-320); experiment: FPA, FITC-SAHB against MCL-1ΔNΔC
T1 construct: also called rMCL-1; MCL-1NC
Protocol: (§1) For direct binding experiments, dissociation constants (KD) were calculated by nonlinear regression analysis of dose-response curves using Prism software (Graphpad). For competition experiments, Ki values were determined by nonlinear regression analysis of dose-response curves using a one-site competition model.
The native alpha-helical structure of BH3 domains was reinforced by incorporating non-natural amino acids containing olefin tethers at the (i, i+4) positions of the non-interacting face, followed by ruthenium catalyzed olefin metathesis to yield a panel of stapled BH3 domains (FIG. 7).

[14] = molecular target: T1, recombinant human MCL-1ΔNΔC (amino …); experiment: fluorescence polarization (FPA), FITC-SAHB, dilution series of MCL-1ΔNΔC [middle panel]
Protocol: as §1
(§2) To measure the binding activity of SAHBs for MCL-1, fluorescence polarization binding assays were performed (FIG. 8). To generate a stable MCL-1 protein suitable for such binding studies (i.e., the published full-length and carboxy-terminus deleted forms of recombinant MCL-1 degrade rapidly, rendering it difficult to maintain a homogenous solution of pure MCL-1 protein), a recombinant form of MCL-1 (rMCL-1) was produced that lacked its amino- and carboxy-terminus, “MCL-1ΔNΔC”, but retained the critical BCL-2 homology domains and adjoining protein sequences that give rise to the BH3-binding cleft (SEQ ID NO: 72). The pGEX-4T vector was used to produce the GST-fusion protein of MCL-1ΔNΔC and purification was achieved by glutathione sepharose chromatography, affinity tag cleavage with thrombin at room temperature overnight, followed by size exclusion chromatography. Serial dilutions of MCL-1ΔNΔC in 50 mM Tris pH 8, 150 mM NaCl were incubated with a fixed concentration of FITC-derivatized SAHB (10-50 nM) until equilibrium was reached. Fluorescence polarization was measured on a BMG POLARstar Optima or Spectramax and dissociation constants determined by nonlinear regression analysis using Prism software 4.0 (Graphpad) (FIG. 8).

[15] = molecular target: T1, recombinant human MCL-1ΔNΔC (amino …); experiment: fluorescence polarization (FPA), FITC-SAHB with recombinant anti-apoptotic protein [lower table]
Protocol: as §1, §2

[16] = molecular target: T1, recombinant human MCL-1ΔNΔC (amino …); experiment: fluorescence polarization (FPA), FITC-SAHB, dilution series of MCL-1ΔNΔC [top panel]
Protocol: as §1
(§3) To measure the binding activity of SAHBs for MCL-1, fluorescence polarization binding assays were performed (FIG. 8). To generate a stable MCL-1 protein suitable for such binding studies (i.e., the published full-length and carboxy-terminus deleted forms of recombinant MCL-1 degrade rapidly, rendering it difficult to maintain a homogenous solution of pure MCL-1 protein), a recombinant form of MCL-1 (rMCL-1) was produced that lacked its amino- and carboxy-terminus, “MCL-1ΔNΔC”, but retained the critical BCL-2 homology domains and adjoining protein sequences that give rise to the BH3-binding cleft (SEQ ID NO: 72). The pGEX-4T vector was used to produce the GST-fusion protein of MCL-1ΔNΔC and purification was achieved by glutathione sepharose chromatography, affinity tag cleavage with thrombin at room temperature overnight, followed by size exclusion chromatography. […] Fluorescence polarization was measured on a BMG POLARstar Optima or Spectramax and dissociation constants determined by nonlinear regression analysis using Prism software 4.0 (Graphpad) (FIG. 8).

[17] = molecular target: T1, recombinant human MCL-1ΔNΔC (amino …); experiment: fluorescence polarization (FPA), FITC-SAHB with recombinant protein; axis Concentration [log(pM)] [right panel]
[18] = molecular target: T1, recombinant human MCL-1ΔNΔC (amino …); experiment: competition FPA: dilution series of acetylated MCL-1 SAHB against FITC-BAK SAHB on MCL-1ΔNΔC
Protocol: (§4) Briefly, FITC-SAHB (50 nM) was added to serial dilutions of FPLC-purified recombinant protein in binding buffer (50 mM Tris, 100 mM NaCl, pH 8.0). […] Multiwell plates were incubated in the dark at room temperature until equilibrium was reached and fluorescence polarization (mP units) was measured by microplate reader (SpectraMax, Molecular Devices). For direct binding experiments, dissociation constants (KD) were calculated by nonlinear regression analysis of dose-response curves using Prism software (Graphpad). For competition experiments, Ki values were determined by nonlinear regression analysis of dose-response curves using a one-site competition model.
(§5) FP (mP units) was measured at equilibrium by microplate reader (e.g., Spectramax) and Kᵢ values calculated by nonlinear regression analysis of dose-response curves using Prism software (Graphpad).

[19] = molecular target: T1, recombinant human MCL-1ΔNΔC (amino …); experiment: FPA
Protocol: as §1
The alanine scan was supplemented with glutamate mutagenesis of alanine and glycine residues.

[20] = molecular target: T1, recombinant human MCL-1ΔNΔC (amino …); experiment: competition FPA, FITC-BAK SAHB and MCL-1ΔNΔC with MCL-1 SAHBs as competitors
Protocol: as §4, §5

[21] = molecular target: T1, recombinant human MCL-1ΔNΔC (amino …); experiment: fluorescence polarization (FPA), FITC-SAHB with recombinant anti-apoptotic protein [upper table]
Protocol: as §1, §3

Chain of recombinant human MCL-1ΔNΔC (amino acids 172-320) (human) (Q07820 172-320 limits assumed, stated change not applied): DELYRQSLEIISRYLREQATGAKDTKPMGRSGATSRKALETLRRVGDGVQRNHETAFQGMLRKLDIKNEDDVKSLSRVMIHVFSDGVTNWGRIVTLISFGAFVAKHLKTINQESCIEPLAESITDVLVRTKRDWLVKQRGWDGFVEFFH
T1 sequence (Q07820 172-320 limits assumed, stated change not applied): as above
Chain of recombinant BCL-wΔC (Q92843 1-164, stated change not applied): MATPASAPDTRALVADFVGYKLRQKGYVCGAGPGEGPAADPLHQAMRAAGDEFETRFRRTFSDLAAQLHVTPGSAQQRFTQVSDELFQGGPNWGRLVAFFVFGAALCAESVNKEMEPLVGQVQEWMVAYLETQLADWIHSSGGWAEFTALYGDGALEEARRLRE
Chain of recombinant BCL-XLΔC (Q07817 1-212, stated change not applied): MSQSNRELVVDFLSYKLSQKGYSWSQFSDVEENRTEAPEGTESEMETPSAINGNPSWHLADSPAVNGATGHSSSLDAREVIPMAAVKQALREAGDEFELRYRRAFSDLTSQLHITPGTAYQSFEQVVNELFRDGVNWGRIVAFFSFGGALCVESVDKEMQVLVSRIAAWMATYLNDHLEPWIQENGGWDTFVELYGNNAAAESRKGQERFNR
Chain of recombinant BFL-1/A1ΔC (Q16548 1-153, stated change not applied): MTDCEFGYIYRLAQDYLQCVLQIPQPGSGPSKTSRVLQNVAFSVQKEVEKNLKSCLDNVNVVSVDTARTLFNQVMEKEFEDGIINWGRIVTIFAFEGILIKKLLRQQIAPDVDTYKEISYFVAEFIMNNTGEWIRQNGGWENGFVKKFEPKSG

Molecule | Kd [3] [nM] | Kd [4] [nM] | Kd [5] [nM] | Kd [13] [nM] | Kd [15] [nM] | further results
NOXA SAHBA (stapled NOXA BH3 helix) (from UniProt Q13794) (peptide) | > 1000 | > 1000 | 416 |  |  | Kd [1]: 22 nM; Kd [2]: < 50 nM; Kd [6]: 22 nM
BIM SAHB (BIM SAHBA) (peptide) |  | 2 | 18 |  |  | EC50 (read off the curve) [7]: 50 nM
NOXA SAHBB (from UniProt Q13794 19-43) (peptide) |  |  |  |  |  | Kd [8]: > 1000 nM; Kd [9]: > 1000 nM; Kd [10]: > 1000 nM; Kd [11]: 109 nM; Kd [12]: 110 nM
{FITC}-ASTKKLSESLK[S5]IGD[S5]LDSN (staple 12-16, domain: BH3) [BAX SAHB] | 15 | 24 | 28 | < 50 | 101 | Kd [14]: 101 nM
{FITC}-QWAREIGAQLR[S5][Nle]AD[S5]LNAQY (staple 12-16, domain: BH3) [PUMA SAHB] | 9 | 18 | 34 | < 50 | 14 | Kd [16]: 14 nM
{FITC}-IWI[S5]QEL[S5]RFGDKFNAYYAR (staple 4-8) [BIM SAHBD with Ile65 to Phe and Glu68 to Lys (MCL-1-specificity tailored BIM SAHB)] |  |  |  |  |  | EC50 (read off the curve) [17]: ~10 nM
B1 |  |  |  | < 50 |  | Ki [18]: 3100 nM
B2 |  |  |  |  |  | Kd [19]: 191 nM
B3 | 15 | 17 | 92 | < 50 | 7 | Kd [14]: 7 nM; IC50 [20]: 270 nM
{FITC}-RLAEVSAVLL[S5]LGD[S5]LE[Nle]IR (staple 11-15) [BOK SAHB] |  |  |  | < 50 |  | Kd [14]: 115 nM; Kd [8]: 316 nM; Kd [9]: 416 nM; Kd [10]: > 1000 nM; Kd [21]: 115 nM
{FITC}-DIIRNIARHLA[S5]VGD[S5][Nle]DRSIRR (staple 12-16, domain: BH3) [BID SAHB] | 28 | 54 | 95 | < 50 | 50 | Kd [16]: 50 nM
